Source: the supplement of paper PMC9170038

Tested on: MS2 coat protein
Assay: apparent KD of MS2 coat protein; designed switch direction (-1 OFF switch, 1 ON switch): -1; higher = weaker reporter binding
Method in brief: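 An oligonucleotide input, 200 uM small-molecule ligand, or no input was present during titration of SNAP-549-labelled MS2 coat protein, which was doubled from 0.7 or 1.5 nM to 3 µM. Designed RNA switches had been transcribed on Illumina chips by stalled E. coli RNA polymerase. Apparent KD per design is the median over clusters of curves fitted to normalised cluster fluorescence.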

[1] = Eterna round: R95, input ligand: FMN 200 uM
[2] = Eterna round: R95, input ligand: microRNA oligo, concentration not stated
[3] = Eterna round: R95, input ligand: none
[4] = input ligand: microRNA oligo, concentration not stated

For “CCGAAGUGGCGGUCCUAUGACAUGAGGAUCACCCAUGUACUUCGCCACGAGCUUUUUGCUCGUCUUAUAGUUCUCGG [Sensor v3, turn-off variant 1 (MOD of Ator)] (puzzle: Sensor v3, turn-off variant 1)”, the “apparent KD of MS2 coat protein” value [1] was 0.435 µM, the “apparent KD of MS2 coat protein” value [2] was 0.0324 µM and the “apparent KD of MS2 coat protein” value [3] was 0.504 µM.
In the case of “AAGACAAAUGUAGGAUAUGCGUGGCGAAGCUAUGCAGAAGGACAUGAGGAUCACCCAUGUCUUAGCGUCUGCGUACAGAUGCUA [JL eng1 1.35 mod 9] (Eterna round: R96, puzzle: Exclusion NG 1)”, the “apparent KD of MS2 coat protein” value [4] is reported as 0.0121 µM.
With “UAAUUAGCAAGUAGAUCCGACAUGAGGAUCACCCAUGUUAUCUGAAAGAACGCAGAAUAAUUGUGAGCUCGUCUAAA [Sensor-V1 #2] (Eterna round: R97, puzzle: Sensor, turn-off variant 1)” the “apparent KD of MS2 coat protein” value (input ligand: FMN 200 uM) was 0.144 µM and the “apparent KD of MS2 coat protein” value (input ligand: none) was 0.154 µM.
“UUCUCGUCAGGAUAUUUGUUGUUGUUGGAAACGGCGGCGGCGGAGAAGGGACAUGAGGAUCACCCAUGUCUGGU [-27.7, -24.8 kcal, 20% A] (Eterna round: R97, puzzle: Exclusion 4)” was tested, and the “apparent KD of MS2 coat protein” value (input ligand: FMN 200 uM) was 0.0285 µM and the “apparent KD of MS2 coat protein” value (input ligand: none) was 0.0212 µM.
With “CUGCUCCGUGUAGGAUAUGCAUACUCCCACUAUGCAGAAGGACAUGAGGAUCACCCAUGUAUGUUAUUAUCACGUGUAGCGUCC [Design 17] (Eterna round: R96, puzzle: Exclusion NG 1)” the “apparent KD of MS2 coat protein” value (input ligand: FMN 200 uM) was 0.0211 µM, the “apparent KD of MS2 coat protein” value [4] was 0.0142 µM and the “apparent KD of MS2 coat protein” value (input ligand: none) was 0.0214 µM.
“UCUCUUGGGCAAGGAUAUCCUGUGCGGUUCCGGCUCGUGUCUGUCACAUGAGGAUCACCCAUGUGGGAGAAGGUGCCUGCGGUC [Design 81] (Eterna round: R96, puzzle: Exclusion NG 2)” was tested, and the “apparent KD of MS2 coat protein” value (input ligand: FMN 200 uM) was 0.0136 µM, the “apparent KD of MS2 coat protein” value [4] was 0.00994 µM and the “apparent KD of MS2 coat protein” value (input ligand: none) was 0.0151 µM.
In the case of “ACUGGUGCAGGAUAUGCAAUCGUGCUUCGGCACGUAAGGUCACAUGAGGAUCACCCAUGUAGAAGGGCACCAGU [E2/4-D1] (Eterna round: R97, puzzle: Exclusion 2)”, the “apparent KD of MS2 coat protein” value (input ligand: FMN 200 uM) is reported as 0.0332 µM and the “apparent KD of MS2 coat protein” value (input ligand: none) is reported as 0.0126 µM.
For “AGCUGUGGCCGAGGAUAUCUAUCUCAUAAAACCGAAAUAUAAUCGGACAUGAGGAUCACCCAUGUAGAGAAGGCGGUCUCAGCA [Eli eng2 - 095] (Eterna round: R96, puzzle: Exclusion NG 2)”, the “apparent KD of MS2 coat protein” value [4] was 0.0201 µM.
In the case of “CUUAUGUGAGGAUAUCAGUAGUGAUACGAUAGUAUUACUGCUGAGAAGGCACAUGAGGAUCACCCAUGUUCCUU [Exclusion 4 - Mod Omei Ex4 344 mod v.3] (puzzle: Exclusion 4)”, the “apparent KD of MS2 coat protein” value [2] is reported as 0.0219 µM.
For “UAUUAGUUAGGAUAUACAUGAGGAUCACCCAUGUCACGGGUCCACUUGUCCUAUGCGUGUAGAAGGAGCGACCC [JL Ceriza mod 4] (puzzle: Exclusion 3)”, the “apparent KD of MS2 coat protein” value [2] was 0.0192 µM.
For “CUGAGCAGACGGAGAUCCAACAUGAGGAUCACCCAUGUCUCAAAAGCUUUUUGCUCGUCUUAUCCUCCUCUGUUCAC [Esquitian 1] (Eterna round: R97, puzzle: Sensor, turn-off variant 1)”, the “apparent KD of MS2 coat protein” value (input ligand: FMN 200 uM) was 0.0264 µM and the “apparent KD of MS2 coat protein” value (input ligand: none) was 0.026 µM.
For “GGUACACAUGAGGAUCACCCAUGUCAGGAUAUCUGGAUACUCUUUAUUUUAGAUAUCCAGAGAAGGGACGUGCC [Ex1-3: 9Z] (puzzle: Exclusion 1)”, the “apparent KD of MS2 coat protein” value [2] was 0.0297 µM.
For “CCAAGAAUAGGAUAUACACCAUGUCAGCUUCUAUACAACGCACAUGAGGAUCACCCAUGUAGAAGGGUUCUCUC [Exclusion-2-#3] (Eterna round: R97, puzzle: Exclusion 2)”, the “apparent KD of MS2 coat protein” value (input ligand: FMN 200 uM) was 0.386 µM and the “apparent KD of MS2 coat protein” value (input ligand: none) was 0.433 µM.
In the case of “UUAAUGAUUGUGAGGAUAUCGGAUAGAUAGAUAUUUGAGAAGGUACAUGAGGAUCACCCAUGUGUGAUUAGAGA [Brourd's EX4 #67] (Eterna round: R97, puzzle: Brourd's mod of Exclusion 4)”, the “apparent KD of MS2 coat protein” value (input ligand: FMN 200 uM) is reported as 0.155 µM and the “apparent KD of MS2 coat protein” value (input ligand: none) is reported as 0.111 µM.
“CGUCAAGCUUCGGCAGGCAACAUGAGGAUCACCCAUGUCUGCGUUCGUCUUAACUGAUCUAGGGAUAGAUCGUGUGU [Eternabot (L1) Solution 49] (Eterna round: R97, puzzle: Sensor, turn-off variant 1)” was tested, and the “apparent KD of MS2 coat protein” value (input ligand: FMN 200 uM) was 0.0183 µM and the “apparent KD of MS2 coat protein” value (input ligand: none) was 0.0154 µM.
With “AGAUGGCGAGGAUAUACAUGAGGAUCACCCAUGUGAAGAUAAAUAGUGAGGAAGAAAAGUAGAAGGCGCUGUCA [Mat - Exclusion 3 - Mod of Salish D27] (puzzle: Exclusion 3)” the “apparent KD of MS2 coat protein” value [2] was 0.0586 µM.
For “AGUUGUUGCGUAGGAUAUGAGGAUCACCCAUAGUAGGAUAACGAAAGUGAAGGACUGAGGAUUACCCAGAAGGACGUGAUGACA [pwkr exNG2 2xF5 2xFMN.6] (Eterna round: R96, puzzle: Exclusion NG 2)”, the “apparent KD of MS2 coat protein” value (input ligand: FMN 200 uM) was 0.602 µM, the “apparent KD of MS2 coat protein” value [4] was 0.234 µM and the “apparent KD of MS2 coat protein” value (input ligand: none) was 0.193 µM.
For “UCAUCGCAAGGAUAUACUUGCGGUGAUGUUCGAAUUCUUCUACUUGAGGAUCACCCAAGUAGAAGGUGCGAUGA [jl-ex2.4.63 ViennaUCT mod] (Eterna round: R97, puzzle: Exclusion 2)”, the “apparent KD of MS2 coat protein” value (input ligand: FMN 200 uM) was 0.0132 µM and the “apparent KD of MS2 coat protein” value (input ligand: none) was 0.0135 µM.
With “UAUAUAUAGUAAGGAUAUGUAAUUAUUUUACAAACAGAAGGUACUGACAUGAGGAUCACCCAUGUUUUAGUGUGGGCAUGUAGA [JMF's solution 46] (Eterna round: R96, puzzle: Exclusion NG 1)” the “apparent KD of MS2 coat protein” value [4] was 0.0397 µM.
With “AUUUAACAUGAGGAUCACCCAUGUGAGGAUAUGUCCAUUUUAAACAAAUAGGAUAUGGACAGAAGGCACACCGG [JR_Exclusion1_Sub007] (puzzle: Exclusion 1)” the “apparent KD of MS2 coat protein” value [2] was 0.219 µM.
For “UUAAUUCUGAUUCUUGAAAUACAUGAGGAUCACCCAUGUUCACAGGAUAUUGAUUAUGGUAGUAACAAGAAGGGUGUAUCAUAU [JR_ExcNG3_Sub039] (Eterna round: R96, puzzle: Exclusion NG 3)”, the “apparent KD of MS2 coat protein” value [4] was 0.0648 µM.
In the case of “CCUCCGCAUUAGGAUAUCGUCACAGAAAUGUGACGAGAAGGAAUGACAUGAGGAUCACCCAUGUUAACGUGAUG [Mod of Brourd 15 - Jieux - Exclusion 6] (Eterna round: R97, puzzle: Exclusion 6)”, the “apparent KD of MS2 coat protein” value (input ligand: FMN 200 uM) is reported as 0.276 µM and the “apparent KD of MS2 coat protein” value (input ligand: none) is reported as 0.0487 µM.
For “GGAUCAUAUGUCAGGAUAUGCUGGACCUUGGUUCAGCAGAAGGGACAUGAGGAUCACCCAUGUCAUGGAGAUCC [Mat - Exclusion 4 - Eli Mod - D53] (Eterna round: R97, puzzle: Brourd's mod of Exclusion 4)”, the “apparent KD of MS2 coat protein” value (input ligand: FMN 200 uM) was 0.27 µM and the “apparent KD of MS2 coat protein” value (input ligand: none) was 0.415 µM.
“GCAAGCUUUUUGCGUAGGAACAUGAGGAUCACCCAUGUGCAUGGAAAGAUGGGAAAGAAAGGAGAGAAAGAUGAAAG [Alacar 1] (Eterna round: R97, puzzle: Sensor, turn-off variant 1)” was tested, and the “apparent KD of MS2 coat protein” value (input ligand: FMN 200 uM) was 0.101 µM and the “apparent KD of MS2 coat protein” value (input ligand: none) was 0.0881 µM.
“CCGAAAAGGAAGGAUAUGCUAGACGAAAGUCUAGCAGAAGGUCCUACAUGAGGAUCACCCAUGUGUCCUAUCGG [Mat - Exclusion 6 - Eli Mod - D39] (Eterna round: R97, puzzle: Exclusion 6)” was tested, and the “apparent KD of MS2 coat protein” value (input ligand: FMN 200 uM) was 0.0499 µM and the “apparent KD of MS2 coat protein” value (input ligand: none) was 0.0434 µM.
With “GCUAGAGCAGGAUAUCUAGAUCCUCACAUGAGGAUCACCCAUGUAGUCGAAAGACUAAGAAGAGAAGGGCUCUAGC [Omei Ex5 E17] (Eterna round: R97, puzzle: Exclusion 5)” the “apparent KD of MS2 coat protein” value (input ligand: FMN 200 uM) was 0.133 µM and the “apparent KD of MS2 coat protein” value (input ligand: none) was 0.00881 µM.
In the case of “CUUGUUUAUGUAGGAUAUGCCUGGCGUGCCUUUGCAGAAGGACAUGAGGAUCACCCAUGUAACAUGAGGCUCACCCUUGUCGCA [salish99_ExNG1_r04_115] (Eterna round: R96, puzzle: Exclusion NG 1)”, the “apparent KD of MS2 coat protein” value (input ligand: FMN 200 uM) is reported as 0.183 µM, the “apparent KD of MS2 coat protein” value [4] is reported as 0.062 µM and the “apparent KD of MS2 coat protein” value (input ligand: none) is reported as 0.162 µM.
For “GAUUGACAUGAGGAUCACCCAUGUGAGGAUAUCGGCUGGACCGUGUUGGCUUGCCUUUCGAGAAGGCGCAUAGG [Exclusion 1 V48] (puzzle: Exclusion 1)”, the “apparent KD of MS2 coat protein” value [2] was 0.0324 µM.
With “AAAAUAAAGGCAGGAUAUCGGAGGCGCUGGCACCGAGAAGGGCCAGGGUGUCGUCAAAACAUGAGGAUCACCCAUGUGAGUGAC [Maanated] (Eterna round: R96, puzzle: Exclusion NG 1)” the “apparent KD of MS2 coat protein” value (input ligand: FMN 200 uM) was 0.0176 µM, the “apparent KD of MS2 coat protein” value [4] was 0.0127 µM and the “apparent KD of MS2 coat protein” value (input ligand: none) was 0.023 µM.
With “AAGAAACAUGAGGAUCACCCAUGUGAGGAUAUGAAAAAUAAAAGAAAAGAAAGAAUAAUCAGAAGGCACAAAGG [Mat - Mod of Hog D10] (puzzle: Exclusion 1)” the “apparent KD of MS2 coat protein” value [1] was 0.0514 µM, the “apparent KD of MS2 coat protein” value [2] was 0.0373 µM and the “apparent KD of MS2 coat protein” value [3] was 0.0414 µM.
“GAUCCUUUUACGGACGUCUCGAAACAUGAGGAUCACCCAUGUGAGGAUAUCUCCGAAAGGUCGGCAGAGAAGGCACAAUAACAA [MOD2 Eternabot solution 19 score 84.66] (Eterna round: R96, puzzle: Exclusion NG 3)” was tested, and the “apparent KD of MS2 coat protein” value (input ligand: FMN 200 uM) was 0.0294 µM, the “apparent KD of MS2 coat protein” value [4] was 0.013 µM and the “apparent KD of MS2 coat protein” value (input ligand: none) was 0.0187 µM.
With “AGUACUAUCACGAGAGUGAUAGUACAUUAAACUUGUGAGACAUGAGGAUCACCCAUGUCCUCAUGAGCUCGUCUUAA [Mat - Sensor v2 - var 2 - Mod - D185] (Eterna round: R96, puzzle: Sensor v2, turn-off variant 2)” the “apparent KD of MS2 coat protein” value (input ligand: FMN 200 uM) was 0.299 µM, the “apparent KD of MS2 coat protein” value [4] was 0.0961 µM and the “apparent KD of MS2 coat protein” value (input ligand: none) was 0.165 µM.
“AGUAGGAGAGGAUAUACGAAGUCAAAAGACUUCGAUCCUCAACAUGAGGAUCACCCAUGUAGAAGGCUCCUACA [Omei Ex2 BD A1] (Eterna round: R97, puzzle: Exclusion 2)” was tested, and the “apparent KD of MS2 coat protein” value (input ligand: FMN 200 uM) was 0.166 µM and the “apparent KD of MS2 coat protein” value (input ligand: none) was 0.154 µM.
“UAAAUGUGAGGAUAUUCGAUGAACACGGAGACGUGUUUAUCGGAGAAGGCACAUGAGGAUCACCCAUGUUCCUU [Mat - Exclusion 4 - JL Mod - D5] (Eterna round: R97, puzzle: Exclusion 4)” was tested, and the “apparent KD of MS2 coat protein” value (input ligand: FMN 200 uM) was 0.216 µM and the “apparent KD of MS2 coat protein” value (input ligand: none) was 0.0247 µM.
